Source: US20140294828A1 (COMPLIX, published 2014)

Biological target: HIV-1 Env of the HXB2 strain (envelope glycoprotein complex gp120/gp41) (HIV-1 (HXB2 strain), UniProt P04578 33-856)
Experiment: cell-based or functional assay

B1: single-chain Alphabody scAB_Env03_KC (designed binder)
chain: MGHHHHHHHHHHSSGHIEGRHMSIEEIQKPIATIQEAIAWIQKKIYMMTGGSGGGSGGGSGGGSGMSIEEIQKQIAAIQCQIAAIQKQIYAMTGGSGGGSGGGSGGGSGMSIEEIQKQIVAIMEQIVAIVKQISAMTP
modifications: Interchain disulfide between Cys80 of chain 1 and Cys80 of chain 2 (homodimer; paragraph 268, and FIG.11 prints 'scAB_Env03_KC (dimer)').
notes: also called Env03 Cys-mutant
- 50% inhibitory concentration (IC50), 5-day MTT infection assay, HXB2 virus on MT4-X4 cells: 709 nM
